According to patent publication US20210380699A1 (published 2021):
Positions count from the first letter of the chain named.

B1: 413G05 (antibody, human IgG1, kappa, V domains shown)
VH: QVQLVESGGGLVKPGGSLRLSCAASGFTFSDYYMSWIRQVPGKGLEWVSYISTSGSTIYYADSVKGRFTISRDNAKNSLYLQMNSLRAEDAAVYHCARGITGTNFYHYGLGVWGQGTTVTVSS
VL: DIQMTQSPSSVSASVGDRVTITCRASQGINSWLAWYQQKPGKAPKLLIYAASTLQSGVPSRFSGSGSGADFTLTISSLQPEDFATYYCQQVNSFPLTFGGGTKVEIKR
B2: 414B06 (antibody, V domains shown)
VH: EVHLVESGGGLVQPGGSLRLSCAASGFTFSSYWMNWVRQAPGKGLEWVANIKQDGSEKYYVDSVKGRFTVSRDNAKNSLYLQMNSLRAEDTAVYYCARVRQWSDYSDYWGQGTPVTVSS
VL: B1 VL with N30S, T53S, A69T, V91A, L96F, G100P, E105D
notes: also called 414606
B3: 1D05 (control antibody of Examples 14 and 15, constant region not stated) (antibody, V domains shown)
VH: EVQLVESGGGLVQPGRSLRLSCAASGFTFDDYAMHWVRQVPGKGLEWVSGISWIRTGIGYADSVKGRFTIFRDNAKNSLYLQMNSLRAEDTALYYCAKDMKGSGTYGGWFDTWGQGTLVTVSS
VL: not shown
notes: Unfused 1D05 run beside the immunocytokines; also called wild type antibody

Columns and labels:
[1] = target: T1, Human PD-L1 expressed on cells (human, UniProt Q9NZQ7 19-290); assay: cell-based or functional assay
[2] = target: T1, Human PD-L1 expressed on cells; assay: cell-based or functional assay; remark: listed apart in the source
[3] = target: T1, Human PD-L1 expressed on cells; assay: flow cytometry on CHO hPD-L1 cells, competitor biotin-CD80-Fc, n = 2
Procedure: (§1) 150 μL FACS buffer is added and cells washed as described above. […] Cells are incubated at 4° C. for 60 minutes. Cells are washed twice with 150 μL FACS buffer, centrifuging at 300 g for 3 minutes after each wash step and aspirating supernatant. Cells are fixed, washed and resuspended for analysis as above. APC signal intensity (geometric mean) is measured by flow cytometry using a Beckman Coulter CYTOFLEX instrument. Data is plotted as percentage of receptor binding.
(§2) All other steps are performed as per plate 2.

[4] = target: T1, Human PD-L1 expressed on cells; assay: flow cytometry on CHO hPD-L1 cells, competitor biotin-CD80-Fc, n = 1
Procedure: as §1, §2

[5] = target: T1, Human PD-L1 expressed on cells; assay: cell-based or functional assay; remark: listed apart in the source
[6] = target: T2, Human PD-L1 His (human PD-L1 ECD with C-terminal His tag) (human, UniProt Q9NZQ7 19-238); assay: ELISA, biotin-PD-L1 to plate-bound PD-1, antibody titrated
T2 construct: Biotinylated in ELISA and AlphaScreen assays; also called hPD-L1-his; biotinylated PD-L1 his
Procedure: (§3) Excess protein was removed by washing with PBS-Tween (0.1% v/v) and the wells were blocked with 1% w/v bovine serum albumin (BSA, Sigma) in PBS for 1 hour at room temperature, after which plates were washed with PBS-Tween as above. 60 μL of a titration (three-fold serial dilution) of antibody was added to a 96-well, non-binding plate diluted in ELISA assay buffer (PBS +0.1% BSA). […] The plate was incubated for 30 minutes before transferring 50 μL to the coated plates. The coated plates were incubated for 1 hour at room temperature. Excess protein was removed by washing with PBS-Tween (0.1% v/v). PD-L1 binding was detected using streptavidin labelled europium (Perkin Elmer) diluted 1/1000 in DELFIA assay buffer (Perkin Elmer). The plates were washed with TBS (Tris buffered saline)-Tween (0.1% v/v) and 50 μL/well of DELFIA Enhancement solution (Perkin Elmer) was added to the plate. Time-resolved fluorescence was measured at 615 nm on an Envision plate reader (PerkinElmer). Percentage specific binding was calculated as defined in Equation 3. IC50 values were determined using GraphPad Prism software by curve fitting using a four-parameter logistic equation (Equation 4). Values for KM121 antibodies are a mean of three independent experiments. Values for KM122 are from a single experiment.

Mouse PD-L1 ECD His = target: T3, Mouse PD-L1 ECD His (mouse, UniProt Q9EP73 19-239); assay: SPR 25C and 37C
T3 construct: also called mouse PD-L1 (his-tagged)

[7] = target: T2, Human PD-L1 His (human PD-L1 ECD with …); assay: ELISA, biotin-PD-L1 to plate-bound CD80, antibody titrated
Procedure: as §3

[8] = target: T1, Human PD-L1 expressed on cells; assay: flow cytometry on CHO hPD-L1 cells, competitor biotin-PD-1-Fc, n = 2
Procedure: as §1

[9] = target: T4, Cyno PD-L1 FLAG (cynomolgus PD-L1 ECD with FLAG tag) (cynomolgus monkey); assay: SPR 25C, antibody captured, PD-L1 analyte
T4 construct: also called cynomolgus monkey PD-L1-FLAG
Procedure: (§4) Label-free surface plasmon resonance (SPR) analysis was carried out on the ProteOn XPR36 (BioRad) array SPR machine. An anti-human IgG capture surface was created on a GLC biosensor chip using a combination of anti-human Fc antibodies (Jackson Labs 09-005-008,109-006-008 and 309-006-008) by amine coupling. […] The data was analysed using the 1:1 model inherent to the ProteOn XPR36 analysis software.

[10] = target: T2, Human PD-L1 His (human PD-L1 ECD with …); assay: SPR 25C, antibody captured, PD-L1 analyte
Procedure: as §4

[11] = target: T4, Cyno PD-L1 FLAG (cynomolgus PD-L1 ECD …); assay: SPR 37C, antibody captured, PD-L1 analyte
[12] = target: T2, Human PD-L1 His (human PD-L1 ECD with …); assay: SPR 37C, antibody captured, PD-L1 analyte
[13] = target: T1, Human PD-L1 expressed on cells; assay: flow cytometry on CHO hPD-L1 cells, competitor biotin-PD-1-Fc, n = 1
Procedure: as §1

[14] = target: T2, Human PD-L1 His (human PD-L1 ECD with …); assay: SPR 25C, antibody captured, PD-L1 analyte; remark: listed apart in the source
Procedure: Label-free surface plasmon resonance (SPR) analysis was carried out on the ProteOn XPR36 (BioRad) array SPR machine. An anti-human IgG capture surface was created on a GLC biosensor chip using amine coupling of an anti-human IgG from GE Healthcare. […] The assay was carried out at 25° C. using HBS-EP (Teknova H8022). Buffer alone was used to reference the binding sensorgrams. The data was analysed using the 1:1 model inherent to the ProteOn XPR36 analysis software.

[15] = target: T2, Human PD-L1 His (human PD-L1 ECD with …); assay: ELISA, biotin-PD-L1 to plate-bound CD80, antibody titrated; remark: listed apart in the source
Procedure: (§5) Excess protein was removed by washing with PBS-Tween (0.1% v/v) and the wells were blocked with 1% w/v bovine serum albumin (BSA, Sigma) in PBS for 1 hour at room temperature, after which plates were washed as described previously. 60 μL of a titration (three-fold dilutions from 100 nM) of antibody was added to a 96-well, non-binding plate diluted in ELISA assay buffer (PBS+0.1% BSA). […] The plate was incubated for 30 min before transferring 50 μL to the coated plates.
(§6) The coated plates were incubated for 1 hour at room temperature. Excess protein was removed by washing with PBS-Tween (0.1% v/v). PD-L1 binding was detected using streptavidin labelled Europium (Perkin Elmer) diluted 1/1000 in DELFIA assay buffer (Perkin Elmer). The plates were washed with TBS (Tris buffered saline)-Tween (0.1% v/v) and 50 μL/well of DELFIA Enhancement solution (Perkin Elmer) was added to the plate. The time-resolved fluorescence was measured at 615 nm on an Envision plate reader (PerkinElmer). Percentage specific binding was calculated as defined in Equation 3.

[16] = target: T2, Human PD-L1 His (human PD-L1 ECD with …); assay: ELISA, biotin-PD-L1 to plate-bound PD-1, antibody titrated; remark: listed apart in the source
Procedure: as §5, §6

T2 sequence (Q9NZQ7 19-238 limits assumed): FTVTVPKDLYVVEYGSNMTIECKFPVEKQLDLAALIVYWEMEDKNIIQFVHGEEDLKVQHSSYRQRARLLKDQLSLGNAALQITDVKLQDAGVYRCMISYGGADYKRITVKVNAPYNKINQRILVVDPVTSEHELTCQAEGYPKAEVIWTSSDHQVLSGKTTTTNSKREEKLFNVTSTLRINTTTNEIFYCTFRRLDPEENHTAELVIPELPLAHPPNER
T4 sequence (chain, as listed by the source limits assumed): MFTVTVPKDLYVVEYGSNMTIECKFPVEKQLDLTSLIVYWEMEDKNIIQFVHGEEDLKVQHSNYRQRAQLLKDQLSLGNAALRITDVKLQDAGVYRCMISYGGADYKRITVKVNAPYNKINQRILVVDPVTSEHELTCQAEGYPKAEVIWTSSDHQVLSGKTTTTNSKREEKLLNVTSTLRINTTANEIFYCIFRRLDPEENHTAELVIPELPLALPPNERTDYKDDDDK
T1 sequence (Q9NZQ7 19-290 limits assumed): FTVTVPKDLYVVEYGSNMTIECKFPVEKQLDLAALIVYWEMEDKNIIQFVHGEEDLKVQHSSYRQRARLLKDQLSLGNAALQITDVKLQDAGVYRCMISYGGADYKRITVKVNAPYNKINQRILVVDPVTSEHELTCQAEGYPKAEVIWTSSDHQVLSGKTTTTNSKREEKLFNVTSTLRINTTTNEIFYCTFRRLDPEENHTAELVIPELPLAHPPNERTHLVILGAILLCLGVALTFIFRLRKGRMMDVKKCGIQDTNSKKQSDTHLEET
T3 sequence (Q9EP73 other isoform, or with tags, fused parts or gaps): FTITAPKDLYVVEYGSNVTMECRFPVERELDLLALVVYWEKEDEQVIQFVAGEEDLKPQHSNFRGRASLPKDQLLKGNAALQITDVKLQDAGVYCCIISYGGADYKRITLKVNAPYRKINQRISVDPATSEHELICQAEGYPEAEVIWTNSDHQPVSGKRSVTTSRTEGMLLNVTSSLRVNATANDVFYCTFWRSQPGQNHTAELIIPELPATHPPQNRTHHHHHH

Row | Binder | EC50, ADCC reporter assay, n = 1 [1] | EC50, ADCC reporter assay, n = 2 [1] | EC50, ADCC reporter assay, n = 3 [1] | max fold induction, ADCC reporter assay, n = 1 [1] | max fold induction, ADCC reporter assay, n = 2 [1] | max fold induction, ADCC reporter assay, n = 3 [1] | EC50, IL-2 induction, murine T cell hybridoma assay, n = 1 [2] | EC50, IL-2 induction, murine T cell hybridoma assay, n = 2 [2] | EC50, IL-2 induction, murine T cell hybridoma assay, n = 3 [2] | IC50 [3] | IC50 [4] | mean EC50, IFNγ induction, monocyte-T cell co-culture [5] | mean fold increase IFNγ, monocyte-T cell co-culture [5] | IC50 [6] | binding result (Mouse PD-L1 ECD His) | IC50 [7] | IC50 [8] | Kd [9] | Kd [10] | Kd [11] | further results
1 | B1 | 0.0219 nM | 0.0209 nM | 0.0275 nM | 13.2 fold | 16.4 fold | 23.4 fold | 0.29 nM | 0.11 nM | 0.29 nM | 1.17 nM | 1.09 nM | 0.082 nM | 2.85 fold | 2.02 nM | no binding | 1.1 nM | 1.17 nM | 0.015 nM | 0.024 nM | 0.046 nM | Kd [12]: 0.05 nM; IC50 [13]: 1.07 nM
2 | B2 | 0.0191 nM | 0.015 nM | 0.0242 nM | 10.9 fold | 20.1 fold | 31.5 fold | 0.59 nM | 0.3 nM | 0.18 nM | 1.22 nM | 1.26 nM | 0.012 nM | 3.33 fold | 1.84 nM | no binding | 1 nM | 1.22 nM | 0.192 nM | 0.172 nM | 0.794 nM | Kd [12]: 0.778 nM; IC50 [13]: 0.95 nM
3 | B3 | – | – | – | – | – | – | – | – | – | – | – | – | – | – | – | – | – | – | – | – | Kd [14]: 0.171 nM; IC50 [15]: 0.882 nM; IC50 [16]: 1.41 nM
